Results as given in US5767072A (priority 1993, dated 1998).
Where no end group is shown, it is not given here.

Columns and labels:
HIV infected cells = type: cell-based
gp120 = gp120 (Human immunodeficiency virus type 1 group M subtype B, UniProt P03375); type: binding, HIV-1
rgp120 [1] = biological target: T1, rgp120 (Human immunodeficiency virus type 1 group M subtype B, UniProt P03375); assay: inhibition of the binding of rCD4-HRP to rgp120 by rCD4 and CD4 peptides; parameters: species or system HIV-1; conditions: even at concentrations of 50 μM
Protocol: The relative affinity of the CD4-peptides-OVA for rgp120 vs rCD4 was calculated by dividing the […].

rgp120 [2] = biological target: T1, rgp120; assay: direct ELISA binding of peptide-OVA to rgp120; parameters: species or system HIV-1
Protocol: CD4-peptide (41-84)-OVA (.circle-solid.); CD4-peptide (40-57)-OVA (.smallcircle.); CD4-peptide (81-92)-OVA (.box-solid.). Control peptide-OVA and OVA (.box-solid.).
Wells coated with rgp120 and blocked as described above were treated with various concentrations of peptide-OVA or OVA (control) in 100 μl and the plate was incubated for 2 hr at 25° C. The plates were washed and then incubated with rabbit IgG anti-OVA coupled to HRP (5 μl/ml) for 2 hr at 25° C. The binding of the labeled antibody was detected as described above. Linear regression curves were generated by plotting the absorption vs the concentration of peptide-OVA.

With `CCN(CC)CCCC(C)Nc1ccnc2cc(Cl)ccc12` (centres unmarked) [chloroquine] the “anticellular activity against HIV infected cells” value (HIV infected cells) was “significant anticellular activity”.

For GSFLTKGPSKLNDRADS [peptide 41-57], the “inhibition of the binding of CD4 to gp120” value (gp120) was “unable to inhibit the binding of CD4 to gp120”.

In the case of “Gln-Gly-Ser-Phe-Leu-Thr-Lys-Gly-Pro-Ser-Lys-Leu-Asn-Asp-Arg-^3 H-Ala-Asp-Ser [CD4-peptide (40-57)]”, the “inhibition of the binding of rCD4 to gp120 by free peptides” value (rgp120 [1]) is reported as “did not inhibit the binding of rCD4 to gp120”.

In the case of TYICEVEDGKEE [CD4-peptide (81-92)], the “inhibition of the binding of rCD4 to gp120 by free peptides” value (rgp120 [1]) is reported as “did not inhibit the binding of rCD4 to gp120”.

B1: OVA: ovalbumin, carrier protein control (protein, UniProt P01012 2-386, looked up)
Ovalbumin: GSIGAASMEFCFDVFKELKVHHANENIFYCPIAIMSALAMVYLGAKDSTRTQINKVVRFDKLPGFGDSIEAQCGTSVNVHSSLRDILNQITKPNDVYSFSLASRLYAEERYPILPEYLQCVKELYRGGLEPINFQTAADQARELINSWVESQTNGIIRNVLQPSSVDSQTAMVLVNAIVFKGLWEKAFKDEDTQAMPFRVTEQESKPVQMMYQIGLFRVASMASEKMKILELPFASGTMSMLVLLPDEVSGLEQLESIINFEKLTEWTSSNVMEERKIKVYLPRMKMEEKYNLTSVLMAMGITDVFSSSANLSGISSAESLKISQAVHAAHAEINEAGREVVGSAEAGVDAASVSEEFRADHPFLFCIKHIATNAVLFFGRCVSP
For B1, the “binding to gp120 in direct ELISA” value (rgp120 [2]) was “did not bind gp120”.
